Results published in paper PMC8809517, “Cofactor-independent RNA editing by a synthetic S-type PPR protein”.

T1: GFP-9S library array, motif 4 ND N98W;D124Q (synthetic construct, N98W;D124Q)
T1 chain: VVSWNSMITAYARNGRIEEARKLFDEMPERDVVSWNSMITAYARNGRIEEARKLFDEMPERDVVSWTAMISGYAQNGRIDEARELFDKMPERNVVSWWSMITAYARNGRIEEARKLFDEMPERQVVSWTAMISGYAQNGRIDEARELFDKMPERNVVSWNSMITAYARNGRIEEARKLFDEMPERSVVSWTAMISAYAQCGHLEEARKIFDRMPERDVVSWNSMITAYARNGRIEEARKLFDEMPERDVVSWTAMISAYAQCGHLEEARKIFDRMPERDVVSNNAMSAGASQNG

T2: GFP-9S library array, motif 4 ND N98R;D124S (synthetic construct, N98R;D124S)
T2 chain: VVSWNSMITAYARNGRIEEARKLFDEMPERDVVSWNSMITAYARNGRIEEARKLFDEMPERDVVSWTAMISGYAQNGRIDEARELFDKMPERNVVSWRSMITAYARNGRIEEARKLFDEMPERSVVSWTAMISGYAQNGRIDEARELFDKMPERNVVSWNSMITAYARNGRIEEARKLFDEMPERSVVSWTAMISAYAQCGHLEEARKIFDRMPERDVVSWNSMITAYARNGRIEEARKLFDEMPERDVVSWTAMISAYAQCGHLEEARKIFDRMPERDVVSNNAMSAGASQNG

T3: GFP-9S library array, motif 4 ND N98T;D124F (synthetic construct, N98T;D124F)
T3 chain: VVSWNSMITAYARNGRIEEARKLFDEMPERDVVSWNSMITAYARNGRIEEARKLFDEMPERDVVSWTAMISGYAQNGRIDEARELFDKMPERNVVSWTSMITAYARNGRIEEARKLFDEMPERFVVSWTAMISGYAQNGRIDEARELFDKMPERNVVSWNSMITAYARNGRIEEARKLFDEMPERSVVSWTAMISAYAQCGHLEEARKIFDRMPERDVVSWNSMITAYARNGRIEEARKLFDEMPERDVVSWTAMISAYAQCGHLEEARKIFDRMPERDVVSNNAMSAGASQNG

T4: GFP-9S library array, motif 4 ND N98C;D124V (synthetic construct, N98C;D124V)
T4 chain: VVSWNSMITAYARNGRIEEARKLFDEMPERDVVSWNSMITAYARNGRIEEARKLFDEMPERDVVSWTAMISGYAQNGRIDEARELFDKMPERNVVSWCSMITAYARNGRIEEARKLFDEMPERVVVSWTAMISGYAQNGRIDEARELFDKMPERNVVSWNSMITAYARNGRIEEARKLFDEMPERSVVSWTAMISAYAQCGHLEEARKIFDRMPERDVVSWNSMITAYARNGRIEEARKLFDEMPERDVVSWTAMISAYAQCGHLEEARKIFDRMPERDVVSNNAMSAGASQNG

T5: GFP-9S library array, motif 4 ND N98M;D124P (synthetic construct, N98M;D124P)
T5 chain: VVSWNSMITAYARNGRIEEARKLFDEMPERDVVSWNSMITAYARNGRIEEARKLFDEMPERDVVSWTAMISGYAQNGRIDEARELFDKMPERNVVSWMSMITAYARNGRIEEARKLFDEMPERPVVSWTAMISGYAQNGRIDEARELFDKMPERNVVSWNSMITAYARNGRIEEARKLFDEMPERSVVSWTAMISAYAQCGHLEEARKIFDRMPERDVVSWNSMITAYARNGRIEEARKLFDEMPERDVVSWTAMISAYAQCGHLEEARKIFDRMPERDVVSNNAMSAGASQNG


Assays:
Assay in all cases: high-throughput RNA pulldown from lysate on Ni-NTA beads; HRP: 50 mM Tris pH 8, 150 mM NaCl, 1 mM beta-mercaptoethanol, 50 ug/ml BSA, 3 ug/ml yeast RNA, 0.5% heparin; ITC and FP: Tris pH 8, 200 mM KCl, 5% glycerol; MST: 50 mM Tris pH 8, 200 mM NaCl, 1 mM DTT, BSA, heparin, 0.05% Tween 20
Conditions in all cases: tags: N-terminal His-eGFP
[1] = biological target: T1, GFP-9S library array, motif 4 ND …
[2] = biological target: T2, GFP-9S library array, motif 4 ND …
[3] = biological target: T3, GFP-9S library array, motif 4 ND …
[4] = biological target: T4, GFP-9S library array, motif 4 ND …
[5] = biological target: T5, GFP-9S library array, motif 4 ND …

Binder	Kd ([1]; label: 5' Cy5) [nM]	Kd ([2]; label: 5' Cy5) [nM]	Kd ([3]; label: 5' Cy5) [nM]	Kd ([4]; label: 5' Cy5) [nM]	Kd ([5]; label: 5' Cy5) [nM]	Kd ([1]; label: 5' IRDye 800CW) [nM]	Kd ([2]; label: 5' IRDye 800CW) [nM]	Kd ([3]; label: 5' IRDye 800CW) [nM]	Kd ([4]; label: 5' IRDye 800CW) [nM]	Kd ([5]; label: 5' IRDye 800CW) [nM]
AUUACACGUGA (ssRNA) [Cy5-rpoA]	101	72.7	241	130	106	–	–	–	–	–
AUUAUACGUGA (ssRNA) [IR-rpoA-U]	–	–	–	–	–	195	88.9	637	167	296
AUUAGACGUGA (ssRNA) [Cy5-rpoA-G]	94.4	93.6	160	124	115	–	–	–	–	–
AUUAAACGUGA (ssRNA) [IR-rpoA-A]	–	–	–	–	–	224	184	173	98.1	264
